Consider 125 sequences from the supplement of paper PMC9112550, “Optimization of the antimicrobial peptide Bac7 by deep mutational scanning” (BMC Biology, 2022).

The test system of this series is Escherichia coli TOP10. As to the kind of experiment: shrunken log2 fold change of peptide-encoding DNA abundance (4.5 h post-induction vs induction); higher = less antimicrobial activity (less host growth inhibition). The settings on record: time post-induction: 4.5 h; library: site-saturation at positions 5, 18, 19, 20.
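Note: peptides expressed intracellularly from a pBAD plasmid library in pooled LB shake-flask culture, induced with 0.3% L-arabinose, DNA abundance read by NGS, three biological replicates, DESeq2 with apeglm shrinkage.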

For the sequence RRIRKRPPRLPRPRPRPIMIPRP, the “shrunken log2 fold change” value was -0.0532.

On to RRIRNRPPRLPRPRPRPGGRPRP, for which the “shrunken log2 fold change” value is 0.0809.

Turning to RRIRSRPPRLPRPRPRPVVIPRP, the “shrunken log2 fold change” value was -0.429.

For RRIRLRPPRLPRPRPRPGCMPRP, the “shrunken log2 fold change” value stood at 0.646.

On to RRIRNRPPRLPRPRPRPHEGPRP, for which the “shrunken log2 fold change” value is -0.015.

As for RRIRKRPPRLPRPRPRPSYPPRP, the “shrunken log2 fold change” value is -0.435.

On to RRIRYRPPRLPRPRPRPDMQPRP, for which the “shrunken log2 fold change” value was found to be 0.0426.

Regarding RRIRPRPPRLPRPRPRPPGIPRP, the “shrunken log2 fold change” value stood at 0.151.

As to RRIRMRPPRLPRPRPRPVKVPRP, the “shrunken log2 fold change” value is 0.0321.

As for RRIRQRPPRLPRPRPRPPNSPRP, the “shrunken log2 fold change” value is -0.0968.

Regarding RRIRKRPPRLPRPRPRPVHRPRP, the “shrunken log2 fold change” value is -0.0578.

For the sequence RRIRIRPPRLPRPRPRPPFCPRP, the “shrunken log2 fold change” value was -0.256.

Turning to RRIRARPPRLPRPRPRPSSRPRP, the “shrunken log2 fold change” value is -0.167.

Take RRIRVRPPRLPRPRPRPRWSPRP: the “shrunken log2 fold change” value was found to be 0.209.

With RRIRKRPPRLPRPRPRPVCGPRP, the “shrunken log2 fold change” value was 0.62.

For RRIRYRPPRLPRPRPRPRFNPRP, the “shrunken log2 fold change” value was -0.808.

As for RRIRNRPPRLPRPRPRPTRPPRP, the “shrunken log2 fold change” value was 0.663.

As for RRIRQRPPRLPRPRPRPMWLPRP, the “shrunken log2 fold change” value is -0.22.

In the case of RRIRSRPPRLPRPRPRPYGVPRP, the “shrunken log2 fold change” value stood at 0.0325.

As for RRIRHRPPRLPRPRPRPNFGPRP, the “shrunken log2 fold change” value was 0.00709.

With RRIRPRPPRLPRPRPRPELAPRP, the “shrunken log2 fold change” value worked out at 0.643.

For the sequence RRIRSRPPRLPRPRPRPQGSPRP, the “shrunken log2 fold change” value is -0.00511.

As to RRIRTRPPRLPRPRPRPLSPPRP, the “shrunken log2 fold change” value is 0.0169.

On to RRIRERPPRLPRPRPRPSEAPRP, for which the “shrunken log2 fold change” value turned out to be 0.134.

Take RRIRFRPPRLPRPRPRPHDMPRP: the “shrunken log2 fold change” value is -0.292.

For the sequence RRIRHRPPRLPRPRPRPGQYPRP, the “shrunken log2 fold change” value is -0.0767.

Turning to RRIRDRPPRLPRPRPRPVYLPRP, the “shrunken log2 fold change” value is -0.219.

RRIRSRPPRLPRPRPRPHMFPRP: the “shrunken log2 fold change” value was -0.428.

For the sequence RRIRDRPPRLPRPRPRPKEMPRP, the “shrunken log2 fold change” value is -0.00146.

For RRIRGRPPRLPRPRPRPLMAPRP, the “shrunken log2 fold change” value amounted to 1.39.

Take RRIRMRPPRLPRPRPRPSETPRP: the “shrunken log2 fold change” value turned out to be 0.814.

On to RRIRNRPPRLPRPRPRPDKHPRP, for which the “shrunken log2 fold change” value was -0.0308.

Regarding RRIRWRPPRLPRPRPRPNYLPRP, the “shrunken log2 fold change” value was -1.

RRIRARPPRLPRPRPRPKGTPRP: the “shrunken log2 fold change” value amounted to 0.233.

Take RRIRKRPPRLPRPRPRPKFNPRP: the “shrunken log2 fold change” value is -0.0876.

With RRIRTRPPRLPRPRPRPCVEPRP, the “shrunken log2 fold change” value is -0.0492.

On to RRIRLRPPRLPRPRPRPWDWPRP, for which the “shrunken log2 fold change” value stood at 0.185.

With RRIRRRPPRLPRPRPRPQNDPRP, the “shrunken log2 fold change” value is -0.212.

Take RRIRVRPPRLPRPRPRPDLYPRP: the “shrunken log2 fold change” value was -0.35.

For the sequence RRIRWRPPRLPRPRPRPNGHPRP, the “shrunken log2 fold change” value was -0.0518.

For RRIRSRPPRLPRPRPRPFTFPRP, the “shrunken log2 fold change” value is -0.189.

In the case of RRIRGRPPRLPRPRPRPTYRPRP, the “shrunken log2 fold change” value came to 0.138.

Take RRIRTRPPRLPRPRPRPYCLPRP: the “shrunken log2 fold change” value was -0.999.

For the sequence RRIRSRPPRLPRPRPRPIYEPRP, the “shrunken log2 fold change” value is -0.134.

For the sequence RRIRWRPPRLPRPRPRPATFPRP, the “shrunken log2 fold change” value was 0.311.

Take RRIRFRPPRLPRPRPRPMYFPRP: the “shrunken log2 fold change” value was -0.331.

For RRIRMRPPRLPRPRPRPTCGPRP, the “shrunken log2 fold change” value turned out to be 0.942.

As for RRIRMRPPRLPRPRPRPIIWPRP, the “shrunken log2 fold change” value is -0.0321.

Regarding RRIRWRPPRLPRPRPRPKMLPRP, the “shrunken log2 fold change” value is 0.149.

Take RRIRFRPPRLPRPRPRPDLFPRP: the “shrunken log2 fold change” value turned out to be 0.0316.

As to RRIRIRPPRLPRPRPRPLCTPRP, the “shrunken log2 fold change” value was -0.407.

Turning to RRIRLRPPRLPRPRPRPTEKPRP, the “shrunken log2 fold change” value is -0.0343.

On to RRIRIRPPRLPRPRPRPTRQPRP, for which the “shrunken log2 fold change” value was -0.00609.

On to RRIRGRPPRLPRPRPRPVMWPRP, for which the “shrunken log2 fold change” value stood at 0.932.

For the sequence RRIRIRPPRLPRPRPRPNWPPRP, the “shrunken log2 fold change” value was -0.146.

Take RRIRVRPPRLPRPRPRPYQYPRP: the “shrunken log2 fold change” value is -0.0296.

With RRIRERPPRLPRPRPRPWKMPRP, the “shrunken log2 fold change” value came out at 0.00355.

Consider RRIRWRPPRLPRPRPRPWAGPRP, for which the “shrunken log2 fold change” value worked out at 0.167.

With RRIRHRPPRLPRPRPRPTFTPRP, the “shrunken log2 fold change” value was -0.265.

In the case of RRIRTRPPRLPRPRPRPFNNPRP, the “shrunken log2 fold change” value was -0.318.

With RRIRYRPPRLPRPRPRPTPKPRP, the “shrunken log2 fold change” value amounted to 0.167.

As for RRIRTRPPRLPRPRPRPQNLPRP, the “shrunken log2 fold change” value is -0.135.

For RRIRVRPPRLPRPRPRPVIMPRP, the “shrunken log2 fold change” value was -0.227.

Take RRIRTRPPRLPRPRPRPHVTPRP: the “shrunken log2 fold change” value is -0.15.

Consider RRIRQRPPRLPRPRPRPNSNPRP, for which the “shrunken log2 fold change” value is -0.648.

On to RRIRVRPPRLPRPRPRPAVNPRP, for which the “shrunken log2 fold change” value came out at 0.138.

On to RRIRMRPPRLPRPRPRPVTSPRP, for which the “shrunken log2 fold change” value was -0.0914.

With RRIRMRPPRLPRPRPRPRFVPRP, the “shrunken log2 fold change” value came to 0.236.

In the case of RRIRMRPPRLPRPRPRPSMGPRP, the “shrunken log2 fold change” value came out at 0.0383.

For the sequence RRIRTRPPRLPRPRPRPYLHPRP, the “shrunken log2 fold change” value is -0.367.

As to RRIRKRPPRLPRPRPRPRPFPRP, the “shrunken log2 fold change” value was found to be 0.612.

For the sequence RRIRPRPPRLPRPRPRPDMHPRP, the “shrunken log2 fold change” value was -0.042.

Turning to RRIRSRPPRLPRPRPRPGYYPRP, the “shrunken log2 fold change” value is -0.457.

For RRIRFRPPRLPRPRPRPTKVPRP, the “shrunken log2 fold change” value is -0.157.

As to RRIRNRPPRLPRPRPRPAWFPRP, the “shrunken log2 fold change” value amounted to 0.294.

For RRIRIRPPRLPRPRPRPAPPPRP, the “shrunken log2 fold change” value amounted to 0.398.

Consider RRIRHRPPRLPRPRPRPNWGPRP, for which the “shrunken log2 fold change” value stood at 0.0702.

Regarding RRIRSRPPRLPRPRPRPKTHPRP, the “shrunken log2 fold change” value was -0.0477.

For the sequence RRIRERPPRLPRPRPRPWWCPRP, the “shrunken log2 fold change” value was -0.426.

For the sequence RRIRHRPPRLPRPRPRPQWHPRP, the “shrunken log2 fold change” value was -0.299.

For RRIRNRPPRLPRPRPRPEFFPRP, the “shrunken log2 fold change” value was -0.064.

As to RRIRIRPPRLPRPRPRPAFIPRP, the “shrunken log2 fold change” value is -0.509.

With RRIRQRPPRLPRPRPRPMYWPRP, the “shrunken log2 fold change” value stood at 0.0971.

Consider RRIRCRPPRLPRPRPRPFWHPRP, for which the “shrunken log2 fold change” value was -0.0854.

As for RRIRNRPPRLPRPRPRPCVGPRP, the “shrunken log2 fold change” value was -0.129.

In the case of RRIRWRPPRLPRPRPRPMPAPRP, the “shrunken log2 fold change” value came to 0.995.

Consider RRIRLRPPRLPRPRPRPDRIPRP, for which the “shrunken log2 fold change” value is -0.123.

As to RRIRYRPPRLPRPRPRPALIPRP, the “shrunken log2 fold change” value was -0.273.

On to RRIRYRPPRLPRPRPRPGAIPRP, for which the “shrunken log2 fold change” value was -0.284.

Turning to RRIRERPPRLPRPRPRPWKYPRP, the “shrunken log2 fold change” value is -0.0185.

Consider RRIRARPPRLPRPRPRPPWCPRP, for which the “shrunken log2 fold change” value worked out at 0.373.

Turning to RRIRKRPPRLPRPRPRPWSMPRP, the “shrunken log2 fold change” value is -0.0905.

In the case of RRIRCRPPRLPRPRPRPRMVPRP, the “shrunken log2 fold change” value stood at 0.205.

Turning to RRIRRRPPRLPRPRPRPENHPRP, the “shrunken log2 fold change” value was 0.0228.

On to RRIRERPPRLPRPRPRPKMVPRP, for which the “shrunken log2 fold change” value was -0.22.

On to RRIRNRPPRLPRPRPRPWQDPRP, for which the “shrunken log2 fold change” value was -0.112.

With RRIRFRPPRLPRPRPRPSSYPRP, the “shrunken log2 fold change” value was -0.676.

RRIRHRPPRLPRPRPRPSAMPRP: the “shrunken log2 fold change” value was 0.06.

Take RRIRKRPPRLPRPRPRPGDLPRP: the “shrunken log2 fold change” value is 0.273.

In the case of RRIRGRPPRLPRPRPRPNRAPRP, the “shrunken log2 fold change” value was found to be 0.43.

RRIRGRPPRLPRPRPRPADRPRP: the “shrunken log2 fold change” value turned out to be 1.07.

RRIRVRPPRLPRPRPRPHQFPRP: the “shrunken log2 fold change” value is -0.0147.

As to RRIRVRPPRLPRPRPRPRFVPRP, the “shrunken log2 fold change” value turned out to be 0.12.

For RRIRCRPPRLPRPRPRPVMIPRP, the “shrunken log2 fold change” value was -0.0658.

With RRIRPRPPRLPRPRPRPMRFPRP, the “shrunken log2 fold change” value is 0.0813.

In the case of RRIRGRPPRLPRPRPRPWISPRP, the “shrunken log2 fold change” value was -0.191.

Turning to RRIRIRPPRLPRPRPRPSHSPRP, the “shrunken log2 fold change” value was -1.02.

For RRIRLRPPRLPRPRPRPFMNPRP, the “shrunken log2 fold change” value was -0.217.

As for RRIRSRPPRLPRPRPRPTAKPRP, the “shrunken log2 fold change” value turned out to be 0.528.

For RRIRNRPPRLPRPRPRPKRTPRP, the “shrunken log2 fold change” value is -0.0256.

RRIRCRPPRLPRPRPRPDLEPRP: the “shrunken log2 fold change” value was -0.26.

As for RRIRTRPPRLPRPRPRPNRPPRP, the “shrunken log2 fold change” value turned out to be 0.00512.

RRIRQRPPRLPRPRPRPGLHPRP: the “shrunken log2 fold change” value is -0.111.

With RRIRERPPRLPRPRPRPHVWPRP, the “shrunken log2 fold change” value worked out at 0.191.

For the sequence RRIRLRPPRLPRPRPRPHDWPRP, the “shrunken log2 fold change” value was determined as 0.184.

Consider RRIRPRPPRLPRPRPRPISYPRP, for which the “shrunken log2 fold change” value is -0.163.

Take RRIRMRPPRLPRPRPRPIDYPRP: the “shrunken log2 fold change” value is -0.0477.

For RRIRLRPPRLPRPRPRPRYNPRP, the “shrunken log2 fold change” value is -0.093.

Turning to RRIRCRPPRLPRPRPRPWQRPRP, the “shrunken log2 fold change” value turned out to be 0.109.

For RRIRLRPPRLPRPRPRPYQMPRP, the “shrunken log2 fold change” value was -0.188.

Turning to RRIRIRPPRLPRPRPRPQRGPRP, the “shrunken log2 fold change” value amounted to 0.0568.

Turning to RRIRCRPPRLPRPRPRPSSYPRP, the “shrunken log2 fold change” value was -0.531.

On to RRIRQRPPRLPRPRPRPQTGPRP, for which the “shrunken log2 fold change” value is -0.137.

As for RRIRIRPPRLPRPRPRPKGMPRP, the “shrunken log2 fold change” value was -0.214.

Consider RRIRGRPPRLPRPRPRPEGVPRP, for which the “shrunken log2 fold change” value was 1.48.
